Consider four molecules from patent US20200340031A1 (YALE UNIVERSITY, published 2020).

Numbering of substitutions follows the chain as printed.

Assay [1] has as its target T1, Recombinant human renalase-1 expressed and secreted by pCDNA3-renalase-1-transfected 293T cells (human, UniProt Q5VYX0 18-342, limits assumed).
T1 construct: whole renalase-1 entry named; Present in cell culture supernatant; also called mammalian-expressed recombinant human renalase
In words: Western blot; lane 293 s/n taken as supernatant of renalase-expressing 293 cells, the text does not explain the lane.

Assay [2] deals with T1, Recombinant human renalase-1 expressed …. In words: Immunoprecipitation from 293T supernatant with Protein G Sepharose, Western blot with biotinylated Ren 28-4. As for the experimental part:
All samples were incubated for 2 hours at 4° C. on a shaker. Immunoprecipitates were then washed 3 times with 1 mL RIPA buffer. 50 ul SDS-PAGE sample buffer (Fermentas) was added directly to Protein G-antibody immunoprecipitates and samples were heated to 95° C. for 5 minutes before running on SDS-PAGE. Actigel-antibody immunoprecipitates were washed a further 2 times in PBS prior to addition of 50 ul 0.1 M Glycine, pH 2.5. Samples were then agitated at room temperature for 10 minutes. Eluted proteins were recovered after centrifugation and resolved by SDS-PAGE. In all experiments 20 μL immunoprecipitate input material and 0.5 ng recombinant renalase positive control (RV11) were also loaded onto the gel.
In the example where a Protein G-mediated immunoprecipitation was used the western primary antibody was biotinylated-Ren 28-4 followed with a neutravidin-HRP secondary probe. In all cases where no immunoprecipitating antibody was added, no renalase was detected on the Western blot. All of the 1D and 1F antibodies (monoclonal and polyclonal) were able to immunoprecipitate bacterially- or mammalian-expressed recombinant human renalase.

Assay [3] concerns the target T2, RPC2 reference standard peptide.
T2 construct: Synthetic: m42 peptide antigen linked to the m28 peptide antigen
In words: standard curve in the sandwich ELISA with m42-RNLS capture and electro-chemiluminescence detection. As for the experimental part:
(§1) In this example, human plasma samples were pretreated as follows: To 40 μL of plasma, 20 μL of 1N Citric acid was added and the samples were incubated on a shaker for 15 min at RT. The reaction solution was neutralized by adding 40 μL of 1M Na₂HPO₄. The samples were then stored on ice and further diluted with Diluent 100 to obtain readings in linear range. Assay protocol: Renalase levels in plasma was measured using the prototype assay on the Mesoscale platform (Meso Scale diagnostics, Gaithersburg, Md., USA) which employs proprietary electro-chemiluminescence detection methods combined with patterned arrays. Standard 96-well assay plate from Mesoscale Diagnostics were coated with 40 μL of Ren 1F 42-7 (m42-RNLS) capture antibody (2 μg/mL) and incubated for 2 hours on a shaker at room temperature. Following this, 150 μL of 3% Blocker A was added and the plate incubated on a shaker for 1 hour at room temperature. The plate was then washed with 150 μL of PBST (3 times); diluted acid activated samples and calibrator was added and the plate incubated for 2 hrs at RT on a shaker. […] The plate was washed and 2× read buffer was added and the plate imaged on SQ120 (Meso Scale Discovery). The raw data was analyzed using the Discovery Workbench software. […]

Assay [4] concerns the target T3, RPC1 reference standard peptide.
T3 construct: Synthetic: m42 peptide antigen linked to the m28 peptide antigen
The description is as above. As for the experimental part:
as §1

T1 sequence (Q5VYX0 18-342 limits assumed): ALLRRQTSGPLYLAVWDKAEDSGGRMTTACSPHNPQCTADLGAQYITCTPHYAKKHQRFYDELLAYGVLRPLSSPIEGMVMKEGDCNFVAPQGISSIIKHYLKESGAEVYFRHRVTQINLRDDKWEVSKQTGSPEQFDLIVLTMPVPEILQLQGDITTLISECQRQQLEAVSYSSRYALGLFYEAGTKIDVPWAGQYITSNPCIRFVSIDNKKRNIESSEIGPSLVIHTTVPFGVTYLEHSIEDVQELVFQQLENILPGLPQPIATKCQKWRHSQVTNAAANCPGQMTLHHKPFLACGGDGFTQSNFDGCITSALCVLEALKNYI
T3 sequence (peptide, as listed by the source): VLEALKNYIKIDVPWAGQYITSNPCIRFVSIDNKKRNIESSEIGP
T2 sequence (peptide, as listed by the source): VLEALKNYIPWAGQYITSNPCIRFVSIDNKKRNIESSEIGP

B1: anti-1D epitope monoclonal antibody 1D-37-10 (antibody, V domains shown)
VH: QSVEESGGRLVTPGGSLTLTCTVSGFSLSDYAIIWVRQAPGKGLEYIAIIGSSGDTFYATWAKGRFTISKTSTTVDLKMTSLTAADTATYFCAPRYAGTTDYHDAFDPWGPGTLVTVSS
VL: EVVMTQTPASMEAPMGGTVTIKCQASQNIYNYLSWYQQKPGQPPKLLVYKASTLTSGVPSRFKGSGSGTQFTLTISDLECADAATYYCQINYSIYNHYNIIFGGGTEVVVKG
notes: Rabbit monoclonal; also called Ren 1D 37-10
As to B1, the binding result in assay [1] was “binds”.

B2: anti-1D epitope monoclonal antibody 1D-28-4 (antibody, V domains shown)
VH: QSVEESGGRLVTPGTPLTLTCTVSGFSLSSFAVGWVRQAPGKGLEYIGIISSVGITRYASWAAGRFTISKTSTTVDLKITSPTTEDTATYFCARYGYSGDVNRLDLWGQGTLVTVSS
VL: AQVLTQTASPVSAAVGGTVTINCQASQSVYDNNNLAWYQQKPGQPPKQLIYGASTLASGVSSRFKGSGSGTQFTLTISGVQCDDAATYYCLGEFSCSSADCFAFGGGTEVVVKG
notes: Rabbit monoclonal from hybridoma, purified on Protein A. Used biotinylated in some assays; also called Ren 1D 28-4; Ren1D 28-4
Take B2: the binding result in assay [1] is listed as “binds”.

B3: anti-1F epitope monoclonal antibody 1F-26-1 (antibody, V domains shown)
VH: QSVKESEGGLFKPTDTLTLTCTVSGFSLSSYGVTWVRQAPGNGLEWIGLIGDRGTTFYASWAKSRSTITRNTNLNTVTLKMTRLTAADTATYFCARGSGYGARIWGPGTLVTVSS
VL: AQVLTQTPSPVSAAVGGTVTINCQSSQSVYKNNYLAWYQQKPGQPPKLLIYETSKLASGVPPRFSGSGSGTQFTLTISSVQCDDAATYYCQGGYSGVDFMAFGGGTEVVVKG
notes: Rabbit monoclonal; Used biotinylated as detection antibody in the sandwich ELISAs; also called Ren 1F 26-1
As to B3, the binding result in assay [2] is “binds”.

B4: anti-1F epitope monoclonal antibody 1F-42-7 (antibody, V domains shown)
VH: B3 VH with S29T, S30T, F57Y, A62V, K63N, S64G, S114A
VL: B3 VL with V11M, V15L, S28T, K31N, A36S, A57S
notes: Rabbit monoclonal; also called Ren 1F 42-7; m42-RNLS
For B4, the binding result in assay [3], in assay [4] and in assay [2] was “binds” in each case.
